Assay results reported in publication PMC11281603.

Molecular target: polymeric Ig receptor (pIgR) fused to the FLAG tag (UniProt P01833)
Test: flow cytometry on cells

UniProt P01833, sequence (P01833 19-764): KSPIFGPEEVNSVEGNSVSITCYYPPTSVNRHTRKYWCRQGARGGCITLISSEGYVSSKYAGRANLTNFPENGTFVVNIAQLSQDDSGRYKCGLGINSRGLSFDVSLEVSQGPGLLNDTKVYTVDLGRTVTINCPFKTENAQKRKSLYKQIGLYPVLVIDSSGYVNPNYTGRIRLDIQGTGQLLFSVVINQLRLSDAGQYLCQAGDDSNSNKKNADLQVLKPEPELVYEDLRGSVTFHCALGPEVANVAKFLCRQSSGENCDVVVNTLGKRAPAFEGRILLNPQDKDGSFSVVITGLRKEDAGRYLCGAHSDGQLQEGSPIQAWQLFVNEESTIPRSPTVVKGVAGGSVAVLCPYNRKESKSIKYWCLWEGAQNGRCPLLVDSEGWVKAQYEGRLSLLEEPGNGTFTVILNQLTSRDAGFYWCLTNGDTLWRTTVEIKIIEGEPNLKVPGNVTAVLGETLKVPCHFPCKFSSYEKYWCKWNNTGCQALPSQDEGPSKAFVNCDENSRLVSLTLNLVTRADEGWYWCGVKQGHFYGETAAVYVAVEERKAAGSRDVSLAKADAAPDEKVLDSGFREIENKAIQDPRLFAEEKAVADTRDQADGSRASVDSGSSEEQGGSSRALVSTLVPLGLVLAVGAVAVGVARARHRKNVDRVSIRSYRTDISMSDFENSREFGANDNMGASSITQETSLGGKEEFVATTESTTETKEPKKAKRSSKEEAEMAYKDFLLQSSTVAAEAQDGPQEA

Row | Substance | mean percent binding to pIgR-expressing cells, ORF8-expressing cells [%] | mean percent binding to pIgR-expressing cells, control cells [%] | percent ORF8 binding left with 10 ug/mL IgA [%]
1 | IgA from human colostrum (from UniProt P01591 23-159) (ligand) | 36.9 | 59.6 | 18
2 | IgM from human serum (ligand) | 25.1 | 33.9 | 
